US10464978B2, “Peptides and combination of peptides for use in immunotherapy against ovarian cancer and other cancers” (immatics biotechnologies GmbH, priority 2015, dated 2019)

Biological target: HLA-A*02:01 (Homo sapiens, UniProt P04439, D140Y/D185E/D98H/E176V/E277Q/G131W/G231S/I119V/I121R/I166T/I218V/L300P/L318F/N151K/N90K/P208A/P217A/Q86G/Q94H/R138H/R169H/T345S)
Assay: MHC binding assay: UV-ligand exchange with beta2m ELISA (peptide exchange yield)
Conditions: binding to HLA-A*02:01
Outline: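 Values give exchange yield, measured by β2m ELISA: 100-fold-diluted monomers bound to streptavidin plates (1h, 37° C), probed with HRP anti-β2m at 2 ug/ml and read at 450 nm after TMB. Monomers came from UV-triggered cleavage of a photolabile peptide and exchange for the test peptide.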

Substance | Peptide exchange (MHC class I binding score, peptide exchange yield)
544 (LLWDVPAPSL; listed as Homo sapiens) [compound 544] | “+++” (≥50 = +++)
545 (LLADLLHNV; listed as Homo sapiens) [compound 545] | “+++” (≥50 = +++)
546 (VMIAGKVAVV; listed as Homo sapiens) [compound 546] | “+++” (≥50 = +++)
547 (TLDITPHTV; listed as Homo sapiens) [compound 547] | “+++” (≥50 = +++)
548 (ALWENPESGEL; listed as Homo sapiens) [compound 548] | “++” (≥20% = ++)
549 (AMLENASDIKL; listed as Homo sapiens) [compound 549] | “+++” (≥50 = +++)
550 (FLYDEIEAEVNL; listed as Homo sapiens) [compound 550] | “+++” (≥50 = +++)
551 (KLYESLLPFA; listed as Homo sapiens) [compound 551] | “+++” (≥50 = +++)
552 (GLLDLPFRVGV; listed as Homo sapiens) [compound 552] | “++++” (≥75% = ++++)
553 (SLLNQDLHWSL; listed as Homo sapiens) [compound 553] | “++++” (≥75% = ++++)
554 (LLMPSSEDLLL; listed as Homo sapiens) [compound 554] | “+++” (≥50 = +++)
555 (YVLEGLKSV; listed as Homo sapiens) [compound 555] | “+++” (≥50 = +++)
556 (FLTDLEDLTL; listed as Homo sapiens) [compound 556] | “+++” (≥50 = +++)
557 (KLYDDMIRL; listed as Homo sapiens) [compound 557] | “+++” (≥50 = +++)
558 (GLLENIPRV; listed as Homo sapiens) [compound 558] | “+++” (≥50 = +++)
559 (VTVPPGPSL; listed as Homo sapiens) [compound 559] | “++” (≥20% = ++)
560 (ALWDIETGQQTTT; listed as Homo sapiens) [compound 560] | “+++” (≥50 = +++)
561 (YLQLTQSEL; listed as Homo sapiens) [compound 561] | “+++” (≥50 = +++)
562 (YLEELPEKLKL; listed as Homo sapiens) [compound 562] | “+++” (≥50 = +++)
563 (WLLPYNGVTV; listed as Homo sapiens) [compound 563] | “+++” (≥50 = +++)

Continued, values first:

Peptide exchange (MHC class I binding score, peptide exchange yield) | Substance
“+++” (≥50 = +++) | 564 (TVTNAVVTV; listed as Homo sapiens) [compound 564]
“++” (≥20% = ++) | 565 (ALQETPTSV; listed as Homo sapiens) [compound 565]
“++” (≥20% = ++) | 566 (VIADGGIQNV; listed as Homo sapiens) [compound 566]
“+++” (≥50 = +++) | 567 (SLLPLDDIVRV; listed as Homo sapiens) [compound 567]
“++++” (≥75% = ++++) | 568 (TLYDIAHTPGV; listed as Homo sapiens) [compound 568]
“+++” (≥50 = +++) | 569 (KLVDRTWTL; listed as Homo sapiens) [compound 569]
“++” (≥20% = ++) | 570 (ALANQIPTV; listed as Homo sapiens) [compound 570]
“+++” (≥50 = +++) | 571 (LLLTTIPQI; listed as Homo sapiens) [compound 571]
“+++” (≥50 = +++) | 572 (ALADLIEKELSV; listed as Homo sapiens) [compound 572]
“+++” (≥50 = +++) | 573 (ILVANAIVGV; listed as Homo sapiens) [compound 573]
“++” (≥20% = ++) | 574 (YLLQEPPRTV; listed as Homo sapiens) [compound 574]
“+++” (≥50 = +++) | 575 (YLISQVEGHQV; listed as Homo sapiens) [compound 575]
“++++” (≥75% = ++++) | 576 (ILLNNSGQIKL; listed as Homo sapiens) [compound 576]
“+++” (≥50 = +++) | 577 (VMFEDGVLMRL; listed as Homo sapiens) [compound 577]
“+++” (≥50 = +++) | 578 (FLDPGGPMMKL; listed as Homo sapiens) [compound 578]
“++” (≥20% = ++) | 579 (NLMEMVAQL; listed as Homo sapiens) [compound 579]
“++” (≥20% = ++) | 580 (LLMENAERV; listed as Homo sapiens) [compound 580]
“+++” (≥50 = +++) | 582 (TLCDVILMV; listed as Homo sapiens) [compound 582]
“+++” (≥50 = +++) | 583 (ILANDGVLLAA; listed as Homo sapiens) [compound 583]
“+++” (≥50 = +++) | 584 (ALAEVAAMENV; listed as Homo sapiens) [compound 584]
“++++” (≥75% = ++++) | 585 (ALWDLAADKQTL; listed as Homo sapiens) [compound 585]
“+++” (≥50 = +++) | 586 (KLKPGDLVGV; listed as Homo sapiens) [compound 586]
“+++” (≥50 = +++) | 587 (VMNDRLYAI; listed as Homo sapiens) [compound 587]
“+++” (≥50 = +++) | 588 (SLLPLSHLV; listed as Homo sapiens) [compound 588]
“+++” (≥50 = +++) | 589 (KLYPQLPAEI; listed as Homo sapiens) [compound 589]
“++” (≥20% = ++) | 590 (SLIEKLWQT; listed as Homo sapiens) [compound 590]
“+++” (≥50 = +++) | 591 (SMAELDIKL; listed as Homo sapiens) [compound 591]
“+++” (≥50 = +++) | 592 (RLLSAAENFL; listed as Homo sapiens) [compound 592]
“+++” (≥50 = +++) | 593 (GLPRFGIEMV; listed as Homo sapiens) [compound 593]
“+++” (≥50 = +++) | 594 (IMLKGDNITL; listed as Homo sapiens) [compound 594]
